# Results taken from patent publication US20240270841A1 (LG CHEM, published 2024).
# What was measured:
# [1] = target: T1, human LILRB1 protein (LILRB1-His, RnD systems Cat. No. 8989-T2) (human, UniProt Q8NHL6 24-458); assay: SPR (Biacore T200), antibody captured by anti-human IgG (Fc), LILRB1-His injected
# T1 construct: Bought protein; also called human LILRB1-His; not shown: His tag
# Description: The binding affinities of the 93 antibodies, which were selected in Example 1.3, to the antigen, LILRB1, were measured using Biacore T200 (GE healthcare). An anti-human IgG (Fc) antibody (GE healthcare, Cat. No. BR-1008-39, final concentration of 25 μg/mL) was flowed at the flow rate of 5 μL/min for 360 seconds to be immobilized at 5000-7000 RU on Series S Sensor Chip CM5 (GE healthcare, Cat. No. BR-1005-30) using Amine Coupling Kit (GE healthcare, Cat. No. BR-1000-508).
# [2] = target: T2, LILRB1 expressed on the surface of human natural killer cell KHYG-1 (human, UniProt Q8NHL6 24-650); assay: flow cytometry (iQue) on KHYG-1 NK cells, antibody 50 ug/mL
# T2 construct: whole, on cells; also called LILRB1 on KHYG-1 cells; human NK cells (surface)
# Description: In order to test whether or not 93 antibodies selected in Example 1.4 bind LILRB1 expressed on surface of immune cells, natural killer cell (NK cell) surface binding assay was performed. A human NK cell, KHYG-1 cell (JCRB) was cultured in RPMI 1640 medium (Gibco) supplemented with 10%(w/v) of FBS (Gibco) and 100 U/mL of interleukin-2 (Novartis). KHYG-1 cells were added to a U-bottom 96-well tissue culture plate (BD Falcon) at the amount of 5×10⁴ cells/well. Each of the selected antibodies was added to the well to the final concentration of 50 μg/mL per well and incubated at 4° C. for 1 hour.
# In order to see the level of LILRB1-specific binding of the selected antibodies, a human IgG4 isotype control antibody (Biolegend) was treated in the same manner. After washing with FACS buffer, the cells were treated with an anti-human Fc-biotin antibody (life technologies) and incubated at 4° C. for 1 hour. After washing with FACS buffer, the cells were treated with streptavidin PE (BD Pharmigen) and incubated at 4° C. for 30 minutes. After washing with FACS buffer, the cells were resuspended and subjected to analysis using iQue screener (Sartorius).
# T1 sequence (Q8NHL6 24-458 limits assumed): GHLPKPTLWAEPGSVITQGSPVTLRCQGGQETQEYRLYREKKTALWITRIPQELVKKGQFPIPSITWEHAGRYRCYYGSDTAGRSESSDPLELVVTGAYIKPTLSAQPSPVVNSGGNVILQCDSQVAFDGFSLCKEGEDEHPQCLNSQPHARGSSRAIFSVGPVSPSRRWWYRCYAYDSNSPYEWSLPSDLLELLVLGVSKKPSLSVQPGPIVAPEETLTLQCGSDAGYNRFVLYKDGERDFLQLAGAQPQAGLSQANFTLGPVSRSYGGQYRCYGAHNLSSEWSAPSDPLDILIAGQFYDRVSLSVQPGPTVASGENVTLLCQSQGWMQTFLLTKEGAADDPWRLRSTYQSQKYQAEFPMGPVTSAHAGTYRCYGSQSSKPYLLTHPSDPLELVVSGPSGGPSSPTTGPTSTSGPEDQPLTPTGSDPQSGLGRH
# T2 sequence (Q8NHL6 24-650): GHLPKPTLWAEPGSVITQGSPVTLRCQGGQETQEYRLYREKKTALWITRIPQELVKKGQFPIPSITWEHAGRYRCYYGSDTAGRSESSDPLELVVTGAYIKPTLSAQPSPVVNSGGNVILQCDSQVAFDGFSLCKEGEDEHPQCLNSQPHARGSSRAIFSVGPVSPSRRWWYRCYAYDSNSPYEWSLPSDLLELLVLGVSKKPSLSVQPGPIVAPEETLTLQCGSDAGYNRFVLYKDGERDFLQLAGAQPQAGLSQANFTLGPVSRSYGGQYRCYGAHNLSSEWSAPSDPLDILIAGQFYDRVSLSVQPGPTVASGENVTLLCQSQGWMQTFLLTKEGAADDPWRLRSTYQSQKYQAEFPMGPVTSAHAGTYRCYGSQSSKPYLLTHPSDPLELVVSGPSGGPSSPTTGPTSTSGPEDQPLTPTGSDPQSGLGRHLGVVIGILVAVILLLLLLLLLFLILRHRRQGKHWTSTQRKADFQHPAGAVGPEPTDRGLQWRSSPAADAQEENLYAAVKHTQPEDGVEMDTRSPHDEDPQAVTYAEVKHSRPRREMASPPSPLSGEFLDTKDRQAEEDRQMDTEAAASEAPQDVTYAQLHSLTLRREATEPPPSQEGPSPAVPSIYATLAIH
Kd [1] [nM],koff [1] [s⁻¹],kon [1] [M⁻¹ s⁻¹],Binder,% of population 2 [2] [%],Mean Fluorescence Intensity [2]
2.26,0.000615,272000,"anti-LILRB1 antibody F11 (antibody, human IgG4 S228P, V domains shown, human IgG4, lambda light chain; also called Antibody clone F11) VH: EVQLVESGGGLVQPGGSLKLSCAASGFTFSSYAMSWVRRAPGKGLEWVSTISGSGDSTYYADSVKGRFTISRDNSKNTLYLQMNNLRAEDTAVYYCAREWELGDAFDIWGRGTLVTVSS VL: QSVLTQPPSTSGTPGQTFSIFCSGSSSNIGTNTVNWYQQLPGTAPKLLIYSNDQRPSGVPDRFSGSKSGTSASLAISGLQSEDEADYYCETWDDSLKGPVFGGGTKVTVLG",,
59.1,0.0152,258000,"anti-LILRB1 antibody G6 (antibody, human IgG4 S228P, V domains shown, human IgG4, lambda light chain; also called Antibody clone G6) VH: EVQLVESGAEVKKPGASVKVSCKASGYTFTSYYMHWVRQAPGQGLEWMGGIIPIFGTANYAQKFQGRVTITADESTSTAYMELSSLRSEDTAVYYCARGWGYSSSFDYWGQGTTVTVSS VL: SYELTQDPAVSVALGQTVTITCQGDSLRRYYATWYQQKPGQAPVLVIYGQNYRPSGIPDRFSGSNSGTTASLTITGAQAEDEADYYCNSRDSSGNHVVFGGGTKLTVLG",,
60.7,0.00163,26800,"anti-LILRB1 antibody E6 (antibody, human IgG4 S228P, V domains shown, human IgG4, lambda light chain; also called Antibody clone E6) VH: QVQLVQSGAEVKKPGASVKVSCKASGYTFTTYDITWVRQAPGQGLEWMGWMNPNSGNSRSAQKFQGRVSMTSDSSISTAYMELSSLRSEDTAVYYCATGDYSGVVLTATALDYWGQGTLVTVSS VL: NFMLTQPHSVSESPGKTVTLSCTGSSGNIASNYVQWYQHRPGSAPTTVIYRDDQRPSGVPDRFSGSIDSSSNSASLTISGLRPEDEADYYCQSYDSSSWVFGGGTKLTVLG",,
180,0.000558,3110,"anti-LILRB1 antibody D3 (antibody, human IgG4 S228P, V domains shown, human IgG4; also called Antibody clone D3) VH: EVQLLESGGGVVQPGRSLRLSCAASGSTFSSYAMSWVRQAPGKGLEWVSAISGSGGSTYYADSVKGRFTISRDNSKNTLYLQMNSLRAEDTAVYYCAKDRGSYGYYYGMDVWGQGTMVTVSS VL: not shown",,
5450,0.000981,180,"anti-LILRB1 antibody A11 (antibody, human IgG4 S228P, V domains shown, human IgG4, kappa light chain; also called Antibody clone A11) VH: EVQLLESGGGLEQPGGFLRLSCAASGFSFTSYAMTWVRQAPGKGLEWVSGISSDGTTTTYADSVRGRFTISRDNAKNTVYLQMNSLRDEDTAVYYCARDQLLGWDALNVWGQGTMVTVSS VL: not shown",,
101,0.0035,34600,"anti-LILRB1 antibody E3 (antibody, human IgG4 S228P, human IgG4, lambda light chain; also called Antibody clone E3) heavy: not shown light: SYELTQDPAVSVALGQTVRITCQGDSLRNFYASWYQQKSGQAPVLVMYGKNNRPSGIPDRFSGSTSGNTASLTITGAQAEDEADYYCNSRDSSGSHLTGVFGGGTKVTVLGQPAAAPSVTLFPPSSEELQANKATLVCLISDFYPGAVTVAWKADSSPVKAGVETTTPSKQSNNKYAASSYLSLTPEQWKSHRSYSCQVTHEGSTVEKTVAPTECS",40.2,269000
66.1,0.000616,9320,"anti-LILRB1 antibody B9 (antibody, V domains shown, human IgG4, kappa light chain; also called Antibody clone B9) VH: QVQLVESGAEVKKPGSSVKVSCKASGGTFSSYAISWVRQAPGQGLEWMGGIIPIFGTANYAQKFQGRVTITADESTSTAYMELSSLRSEDTAVYYCARGEIAVAQNWDYYGMDVWGQGTLVTVSS VL: DIQMTQSPSSLSASVGDRVTITCRASQSISRYLNWYQQKPGKAPKLLIYGASSLQSGVPSRFSGSGSGTDFTLTISSLQPEDFATYHCQQAYGFPLTLGGGTKVEIKR",,
3.46,0.000973,281000,"anti-LILRB1 antibody F12 (antibody, human IgG4 S228P, V domains shown, human IgG4, lambda light chain; also called Antibody clone F12) VH: QVQLVQSGAEVKKPGESLKISCKGSGYSFTSYWIGWVRQMPGKGLEWMGIIYPGDSDTRYSPSFQGQVTISADKSISTAYLQWSSLKASDTAMYYCASQYYDGGYYMDVWGQGTLVTVSS VL: QSVLTQPASVSGSPGQSITISCAGTSSDIGDYDYVSWYQQHPGKTPKLMIYDVSRRPSGVPDRFSGSKSGNTASLTISGLQTEDEADYYCASYTSSSVVVFGGGTKLTVLG",38,262000
3.05,0.000436,143000,"anti-LILRB1 antibody G9 (antibody, human IgG4 S228P, V domains shown, human IgG4, lambda light chain; also called Antibody clone G9) VH: QVQLVQPGAEVKKPGESLKISCKGSGYSFTSYWIGWVRQMPGKGLEWMGIIYPGDSDTRYSPSFQGQVTISADKSISTAYLQWSSLKASDTAMYYCASQYYDGGYYMDVWGQGTLVTVSS VL: QSALTQPASVSGSPGQSITISCTGSSSDVGGYNYVSWYQQHPGKAPKLMIYDVSNRPSGVSDRFSGSKSGNMASLTISGLQAEDEADYYCSSYTGSSTLDVLFGGGTKLTVLG",41.3,263000
7.84,0.00144,184000,"anti-LILRB1 antibody B12 (antibody, V domains shown, human IgG4, kappa light chain; also called Antibody clone B12) VH: QVQLVQSGAEVKKPGASVKVSCKASGYTFTGYYMHWVRQAPGQGLEWMGWINPNSGGTNYAQKFQGRVTITADESTSTAYMELSSLRSEDTAVYYCTRAGASIVGATALDYWGQGTLVTVSS VL: not shown",,
72.5,0.000773,10600,"anti-LILRB1 antibody E4 (antibody, human IgG4 S228P, V domains shown, human IgG4, lambda light chain; also called Antibody clone E4) VH: QVQLVQSGAEVKKPGSSVKVSCKASGGTFSSYTISWVRQAPGQGLEWMGRIIPILGIANYAQKFQGRVTMTRDMSTDTAYMELSSLTYDDTAVYFCVRGPSLNYAGYFDNWGQGTLVTVSS VL: NFMLTQPHSVSESPGKTVTISCTRSSGSIASNYVQWYQQRPGSSPTTVIYEDNQRPSGVPDRFSGSIDSSSNSASLTISGLKTEDEADYYCQSYDTGNRNYVFGTGTQLTVLG",43.2,272000
99.9,0.00105,10500,"anti-LILRB1 antibody E9 (antibody, human IgG4 S228P, V domains shown, human IgG4, lambda light chain; also called Antibody clone E9) VH: QVQLVESGGGLVQPGRSLRLSCAASGFTFSSYGMHWVRQAPGKGLEWVANIKQDGSEKYYVDSVKGRFTISRDNAKNTLYLQMNSLRAEDTAVYYCAREDRIAAAGMRELDYWGQGTLVTVSS VL: QSELTQLPSASETPGQRVTISCSGSSSNIGNNYVYWYQQLPGTAPKLLIYRNNQRPSGVPDRFSGSKSGTSASLAISGLRSEDEADYYCAAWDDSLSGWVFGGGTKLTVLG",,
99.8,0.00149,14900,"anti-LILRB1 antibody B3 (antibody, human IgG4 S228P, V domains shown, human IgG4, kappa light chain; also called Antibody clone B3) VH: EVQLLESGGGLVQPGRSLRLSCAASGFTFDDYAMHWVRQAPGKGLEWVSGISWNSGSIGYADSVKGRFTISRDNSKNTLYLQMNSLRAEDTAVYYCARVGDSSGWSDAFDIWGQGTMVTVSS VL: not shown",,
44,0.0103,233000,"anti-LILRB1 antibody E12 (antibody, human IgG4 S228P, V domains shown, human IgG4, lambda light chain; also called Antibody clone E12) VH: QVQLVESGGGLVQPGGSLRLSCAASGFTFSSYAMHWVRQAPGKGLEWVAVISYDGSNKYYADSVKGRFTISRDNSKNTLYLQMNSLRAEDTAVYYCARERGSGMDVWGQGTLVTVSS VL: SYELTQDPAVSVALGQTVRITCQGDSLRSYYASWYQQKSGQAPVLVIYGKEKRPSGIPDRFSGSSSGNTASLTITGARAEDEADYYCNSRGSTTDYMVFGGGTQLTVLG",,
3.28,0.00142,433000,"anti-LILRB1 antibody G1 (antibody, human IgG4 S228P, V domains shown, human IgG4, lambda light chain; also called Antibody clone G1) VH: EVQLVQSGAEVKKPGSSVKVSCKASGGTFSSYGISWVRQAPGQGLEWMGWISAYNGNTNYAQELQGRVTMTTDTSTSTAYMELRSLRSDDTAVYYCARVGVAGKLDYWGQGTLVTVSS VL: SYELTQPPSLSVSPGQTASITCSGYKLGDRYVSWYQQKTGQSPVVVIYKDSQRPSGVPERFSGSNSGNTATLTISGTQAMDEADYYCQAWDSGTGVFGGGTKLTVLG",56.2,321000
49.3,0.00574,116000,"anti-LILRB1 antibody D1 (antibody, human IgG4 S228P, V domains shown, human IgG4, kappa light chain; also called Antibody clone D1) VH: EVQLVQSGAEVKKPGASVKVSCKASGYTFTSYGISWVRQAPGQGLEWMGWINPNSGGTNYAQKFQGRVTMTRDTSISTAYMELSRLRSDDTAVYYCASRGVDEGDYWGQGTMVTVSS VL: ETTLTQSPAFMSATPGDKVNISCKASQDIDDDMNWYQQKPGEAAISIIQEASTLVPGIPPRFSGSGYGTDFTLTINNIESEDAAYYFCLQHDKFPYTFGQGTKLEIKR",,
152,0.00765,50400,"anti-LILRB1 antibody A10 (antibody, human IgG4 S228P, V domains shown, human IgG4, kappa light chain; also called Antibody clone A10) VH: QMQLVQSGAEVKKPGSSVKVSCKASGGTFSSYAISWVRQAPGQGLEWMGGIIPIFGTANYAQKFQGRVTITADKSISTAYMELSSLRSEDTAVYYCARGGLGELDNWFDPWGQGTLVTVSS VL: DIVMTQSPATLSVSPGERATLSCRASQSVSSNLAWYQQKPGQAPRLLIYGASTRATGIPARFSGSGSGTEFTLTISSLQSEDFAVYYCQQYGSSPRMYTFGQGTKVDIKR",28.7,223000
